Laboratory results reported in patent publication US9994626B2, “Stable polypeptides binding to human complement C5” (Swedish Orphan Biovitrum AB (publ), priority 2013, dated 2018).

Legend:
[1] = Accelerated stability study, 2 weeks at 37° C., SDS-PAGE and Reversed Phase HPLC (RPC)
Experimental: The stability was measured by the appearance of new variants after the stability testing by SDS-PAGE and Reversed Phase HPLC (RPC). In both analyses the initial sample and the one subjected to the stability study were run in parallel. For the SDS-PAGE, 7.5 μg protein was loaded into each well.
The purified proteins were formulated in 25 mM NaP/125 mM NaCl pH 7.0 and subjected to an accelerated stability study for 2 weeks at 37° C. The stability was measured by the appearance of new variants after the stability testing by SDS-PAGE and Reversed Phase HPLC (RPC). In both analyses the initial sample and the one subjected to the stability study were run in parallel. For the SDS-PAGE, 7.5 μg protein was loaded into each well.

[2] = 3 month stability test at 37° C., RPC; format: physicochemical
Source text: The 2 weeks data from example 2 is included in Table VIII below to make the interpretation easier.

[3] = after 2 weeks at 37° C., 25 mM NaP/125 mM NaCl pH 7.0

B1: PSI0383: C5 binding compound with N52S, D53E, D60E and loop [L2] substitutions D36R, D37Q, S39E (protein)
chain: AEAKYAKEVLEAWDEIDRLPNLTIEQWLAFINKLDRQPEQSSELLSEAKKLSESQAPKVEGSLAEAKEAANAELDSYGVSDFYKRLIDKAKTVEGVEALKDAILAALP
modifications: Modified bacterial sequence
stability when compared with PSI0242 ([1]; 2 weeks at 37° C., conclusion in words): increased stability
Main peak (% of total protein) ([1]; RPC after 2 weeks at 37° C., 25 mM NaP/125 mM NaCl pH 7.0): 91 % of total protein
2 weeks, 37° C. Main peak (% of total protein) ([1]; RPC, 2 weeks, 37° C., data from example 2): 91 % of total protein
RPC post peaks [1, 3]: 0
RPC prepeaks [1, 3]: 0
SDS-PAGE bands [1, 3]: 1
3 months, 37° C. Main peak (% of total protein) ([2]; RPC, 3 months, 37° C.): 59 % of total protein
proportion of protein in the original form after 3 months at 37° C. versus PSI0242 after 2 weeks ([2]; result in words): higher proportion of protein in the original form
